B1: Receptor-type tyrosine-protein phosphatase R (Homo sapiens), Q15256 (parent)
chain: MRRAVCFPALCLLLNLHAAGCFSGNNDHFLAINQKKSGKPVFIYKHSQDIEKSLDIAPQKIYRHSYHSSSEAQVSKRHQIVNSAFPRPAYDPSLNLLAMDGQDLEVENLPIPAANVIVVTLQMDVNKLNITLLRIFRQGVAAALGLLPQQVHINRLIGKKNSIELFVSPINRKTGISDALPSEEVLRSLNINVLHQSLSQFGITEVSPEKNVLQGQHEADKIWSKEGFYAVVIFLSIFVIIVTCLMILYRLKERFQLSLRQDKEKNQEIHLSPITLQPALSEAKTVHSMVQPEQAPKVLNVVVDPQGRGAPEIKATTATSVCPSPFKMKPIGLQERRGSNVSLTLDMSSLGNIEPFVSIPTPREKVAMEYLQSASRILTRSQLRDVVASSHLLQSEFMEIPMNFVDPKEIDIPRHGTKNRYKTILPNPLSRVCLRPKNVTDSLSTYINANYIRGYSGKEKAFIATQGPMINTVDDFWQMVWQEDSPVIVMITKLKEKNEKCVLYWPEKRGIYGKVEVLVISVNECDNYTIRNLVLKQGSHTQHVKHYWYTSWPDHKTPDSAQPLLQLMLDVEEDRLASQGRGPVVVHCSAGIGRTGCFIATSIGCQQLKEEGVVDALSIVCQLRMDRGGMVQTSEQYEFVHHALCLYESRLSAETVQ

Variants of: B1
Settings: with ret_human RET

Row | Variant | effect of a mutation on the interaction
1 | Y249F | increasing interaction
2 | C588S | disrupting interaction

Variants of: B1
Settings: with ron_mouse Mst1r, Q62190

Row | Variant | effect of a mutation on the interaction
3 | Y249F | increasing interaction
4 | C588S | disrupting interaction

Variants of: B1
Settings: with erbb4_human ERBB4, Q15303

Row | Variant | effect of a mutation on the interaction
5 | C588S | with no effect

Variants of: B1
Settings: with ret_human RET
Remark: another data set of the same source

Row | Variant | effect of a mutation on the interaction
6 | C588S | with no effect

Variants of: B1
Settings: with igf1r_human IGF1R

Row | Variant | effect of a mutation on the interaction
7 | C588S | decreasing interaction

Variants of: B1
Settings: with ntrk1_human NTRK1, P04629
Chain of ntrk1_human NTRK1, P04629 (P04629 whole entry, looked up): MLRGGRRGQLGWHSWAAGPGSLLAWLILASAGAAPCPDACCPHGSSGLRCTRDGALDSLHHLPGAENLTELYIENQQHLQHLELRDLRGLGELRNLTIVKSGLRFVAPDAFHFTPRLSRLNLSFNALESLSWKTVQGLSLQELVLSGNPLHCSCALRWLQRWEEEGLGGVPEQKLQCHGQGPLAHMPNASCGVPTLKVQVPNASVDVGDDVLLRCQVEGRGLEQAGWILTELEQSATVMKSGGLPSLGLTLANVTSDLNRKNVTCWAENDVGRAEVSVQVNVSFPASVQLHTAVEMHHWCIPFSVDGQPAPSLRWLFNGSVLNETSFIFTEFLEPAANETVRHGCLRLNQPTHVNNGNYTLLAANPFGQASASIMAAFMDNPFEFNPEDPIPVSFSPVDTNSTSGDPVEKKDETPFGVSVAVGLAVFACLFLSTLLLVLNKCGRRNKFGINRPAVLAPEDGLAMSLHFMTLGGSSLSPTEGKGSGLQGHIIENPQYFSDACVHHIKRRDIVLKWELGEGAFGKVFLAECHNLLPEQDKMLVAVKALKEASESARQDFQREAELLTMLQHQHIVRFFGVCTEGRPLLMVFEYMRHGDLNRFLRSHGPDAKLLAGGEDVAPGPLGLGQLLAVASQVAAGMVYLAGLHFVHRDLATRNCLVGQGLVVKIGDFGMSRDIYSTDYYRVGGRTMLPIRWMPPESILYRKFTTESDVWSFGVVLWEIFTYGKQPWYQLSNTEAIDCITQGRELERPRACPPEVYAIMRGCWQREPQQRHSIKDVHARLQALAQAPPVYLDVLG

Row | Variant | effect of a mutation on the interaction
8 | C588S | with no effect

Variants of: B1
Settings: with tie2_human TEK

Row | Variant | effect of a mutation on the interaction
9 | C588S | decreasing interaction

Variants of: B1
Settings: with ron_mouse Mst1r

Row | Variant | effect of a mutation on the interaction
10 | C588S | increasing interaction

Variants of: B1
Settings: with fgfr2_human FGFR2, P21802
Chain of fgfr2_human FGFR2, P21802 (P21802 whole entry, looked up): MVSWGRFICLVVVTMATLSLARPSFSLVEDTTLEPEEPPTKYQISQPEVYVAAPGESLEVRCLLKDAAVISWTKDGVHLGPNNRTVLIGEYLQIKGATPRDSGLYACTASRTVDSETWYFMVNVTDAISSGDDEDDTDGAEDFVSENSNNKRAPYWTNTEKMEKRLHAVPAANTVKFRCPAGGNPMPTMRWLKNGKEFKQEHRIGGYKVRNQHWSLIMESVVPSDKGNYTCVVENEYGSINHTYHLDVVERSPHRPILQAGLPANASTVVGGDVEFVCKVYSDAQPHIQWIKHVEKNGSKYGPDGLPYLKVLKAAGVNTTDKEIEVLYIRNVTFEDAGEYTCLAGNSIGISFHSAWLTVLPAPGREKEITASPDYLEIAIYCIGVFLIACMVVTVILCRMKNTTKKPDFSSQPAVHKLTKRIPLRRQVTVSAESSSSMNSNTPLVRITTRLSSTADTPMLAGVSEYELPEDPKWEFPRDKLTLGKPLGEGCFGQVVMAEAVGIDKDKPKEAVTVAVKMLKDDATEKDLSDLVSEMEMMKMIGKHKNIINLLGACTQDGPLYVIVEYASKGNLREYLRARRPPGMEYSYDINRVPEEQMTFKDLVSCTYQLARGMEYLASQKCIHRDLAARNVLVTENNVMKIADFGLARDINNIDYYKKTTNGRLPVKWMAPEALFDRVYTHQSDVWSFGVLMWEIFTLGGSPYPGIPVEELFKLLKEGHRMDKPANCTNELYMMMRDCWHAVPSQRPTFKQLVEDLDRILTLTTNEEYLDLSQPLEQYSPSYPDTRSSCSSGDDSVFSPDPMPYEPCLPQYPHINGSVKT

Row | Variant | effect of a mutation on the interaction
11 | C588S | disrupting interaction

Variants of: B1
Settings: with fgfr4_human FGFR4, P22455
Chain of fgfr4_human FGFR4, P22455 (P22455 whole entry, looked up): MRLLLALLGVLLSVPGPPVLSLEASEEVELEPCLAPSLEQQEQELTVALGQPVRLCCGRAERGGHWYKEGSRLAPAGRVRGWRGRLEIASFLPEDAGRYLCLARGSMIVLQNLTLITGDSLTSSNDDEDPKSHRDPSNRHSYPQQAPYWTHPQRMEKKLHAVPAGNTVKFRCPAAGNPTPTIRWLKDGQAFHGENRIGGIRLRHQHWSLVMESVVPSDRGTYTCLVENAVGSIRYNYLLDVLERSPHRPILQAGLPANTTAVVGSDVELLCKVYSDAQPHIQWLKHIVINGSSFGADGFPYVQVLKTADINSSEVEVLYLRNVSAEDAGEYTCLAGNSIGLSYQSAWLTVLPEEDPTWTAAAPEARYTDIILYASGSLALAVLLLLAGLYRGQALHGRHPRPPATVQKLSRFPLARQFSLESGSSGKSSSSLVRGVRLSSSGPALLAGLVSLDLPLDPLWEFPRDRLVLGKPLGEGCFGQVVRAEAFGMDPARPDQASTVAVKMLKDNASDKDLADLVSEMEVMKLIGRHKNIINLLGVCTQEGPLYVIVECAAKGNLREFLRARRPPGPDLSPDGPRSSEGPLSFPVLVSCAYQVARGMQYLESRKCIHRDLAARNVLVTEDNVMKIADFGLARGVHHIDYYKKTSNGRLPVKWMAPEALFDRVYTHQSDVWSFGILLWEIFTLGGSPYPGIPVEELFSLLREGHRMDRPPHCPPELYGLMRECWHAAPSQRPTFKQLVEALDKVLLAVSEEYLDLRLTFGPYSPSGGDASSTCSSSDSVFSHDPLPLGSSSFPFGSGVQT

Row | Variant | effect of a mutation on the interaction
12 | C588S | decreasing interaction

Variants of: B1
Settings: with vgfr2_human KDR

Row | Variant | effect of a mutation on the interaction
13 | C588S | with no effect

Variants of: B1
Settings: with igf1r_human IGF1R
Remark: another data set of the same source

Row | Variant | effect of a mutation on the interaction
14 | C588S | with no effect
